Values quoted from earlier work in paper PMC6678900.

Columns and labels:
TRAILR1 (Homo sapiens) = TRAILR1 (Homo sapiens) (UniProt O00220)
TRAILR2 (Homo sapiens) = TRAILR2 (Homo sapiens) (UniProt O14763)
TRAILR4 (Homo sapiens) = TRAILR4 (Homo sapiens) (UniProt Q9UBN6)

TRAILR1 (from UniProt O00220)
Kd (TRAILR1 (Homo sapiens)): > 1000 nM

TRAILR2 (from UniProt O14763)
Kd (TRAILR2 (Homo sapiens)): > 1000 nM

TRAILR4 (from UniProt Q9UBN6)
Kd (TRAILR4 (Homo sapiens)): > 1000 nM
